Patent publication US20230235052A1 (GRACELL BIOTECHNOLOGIES SHANGHAI, published 2023)
Read-outs that look alike come from different tables or passages of the source.

Tests used:
human CD19 antigen [1] = molecular target: T1, human CD19 antigen (human, UniProt P15391 20-291, limits assumed); experiment: SPR (Biacore), antibody captured via Fc
T1 sequence (looked up): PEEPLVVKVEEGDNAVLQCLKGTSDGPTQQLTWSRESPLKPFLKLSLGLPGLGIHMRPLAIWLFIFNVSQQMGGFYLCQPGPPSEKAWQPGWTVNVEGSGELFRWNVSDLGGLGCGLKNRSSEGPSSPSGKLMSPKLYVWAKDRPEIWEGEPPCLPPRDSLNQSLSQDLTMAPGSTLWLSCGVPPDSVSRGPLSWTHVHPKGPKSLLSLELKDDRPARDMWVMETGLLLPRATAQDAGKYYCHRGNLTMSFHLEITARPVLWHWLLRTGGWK
Experimental: Part of the antibodies in Example 1 were tested for affinity, and the composition of the heavy chain variable regions and the light chain variable regions of the antibodies to be tested are shown in Table 1.
(§1) HEK293 cells were used to express the antibodies to be tested and Protein A was used for purification. The surface plasmon resonance technique (SPR) was used for determination, and the Fc capture method was used for antibody fixation.

human CD19 antigen [2] = molecular target: T1, human CD19 antigen; experiment: SPR (Biacore), antibody captured via Fc; remark: listed apart in the source
Experimental: Part of the antibodies in Example 1 were tested for affinity, and the composition of the heavy chain variable regions and the light chain variable regions of the antibodies to be tested are shown in Table 2.
as §1

Binder	Kd (human CD19 antigen [1])	koff (human CD19 antigen [1])	Kd (human CD19 antigen [2])	koff (human CD19 antigen [2])	kon (human CD19 antigen [2])
humanized CD19 antibody VH3 + VL2 (antibody, V domains shown, also called Antibody No. 8) VH: QVQLQESGPGLVKPSQTLSLTCTVSGVSLPDYGVSWIRQPPGKGLEWIGVIWGSETTYYNSALKSRLTISKDTSKNQVSLKLSSVTAADTAVYYCAKHYYYGGSYAMDYWGQGTTVTVSS VL: DIQMTQSPSSLSASVGDRVTITCRASQDISKYLNWYQQKPGKAPKLLIYHTSRLHSGVPSRFSGSGSGTDYTFTISSLQPEDIATYYCQQGNTLPYTFGGGTKLEIK	109 nM	0.000638 s⁻¹			
humanized CD19 antibody VH3 + VL1 (antibody, V domains shown, also called Antibody No. 7) VH: QVQLQESGPGLVKPSQTLSLTCTVSGVSLPDYGVSWIRQPPGKGLEWIGVIWGSETTYYNSALKSRLTISKDTSKNQVSLKLSSVTAADTAVYYCAKHYYYGGSYAMDYWGQGTTVTVSS VL: DIQMTQSPSSLSASVGDRVTITCRASQDISKYLNWYQQKPGKAPKLLIYHTSRLHSGVPSRFSGSGSGTDFTFTISSLQPEDIATYYCQQGNTLPYTFGGGTKLEIK	111 nM	0.000688 s⁻¹			
humanized CD19 antibody VH1 + VL3 (antibody, V domains shown, also called Antibody No. 3) VH: QVQLQESGPGLVKPSQTLSLTCTVSGVSLPDYGVSWIRQPPGKGLEWIGVIWGSETTYYNSALKSRVTISVDTSKNQFSLKLSSVTAADTAVYYCARHYYYGGSYAMDYWGQGTTVTVSS VL: DIQMTQSPSSLSASVGDRVTITCRASQDISKYLNWYQQKPGKAPKLLIYHTSRLHSGVPSRFSGSGSGTDYTLTISSLQPEDIATYYCQQGNTLPYTFGGGTKLEIK	40.7 nM	0.0794 s⁻¹			
humanized CD19 antibody VH2 + VL6 (antibody, V domains shown) VH: QVQLQESGPGLVKPSQTLSLTCTVSGVSLPDYGVSWIRQPPGKGLEWIGVIWGSETTYYNSALKSRVTISKDTSKNQVSLKLSSVTAADTAVYYCAKHYYYGGSYAMDYWGQGTTVTVSS VL: DIQMTQSPSSLSASVGDRVTITCRASQDISKYLNWYQQKPGGAVKLLIYHTSRLHSGVPSRFSGSGSGTDYTFTISSLQPEDIATYFCQQGNTLPYTFGGGTKLEIK			6.93 nM	0.00124 s⁻¹	179000 M⁻¹ s⁻¹
humanized CD19 antibody VH5 + VL2 (antibody, V domains shown, also called Antibody No. 14) VH: QVQLQESGPGLVKPSQTLSVTCTVSGVSLPDYGVSWIRQPPGKGLEWLGVIWGSETTYYNSALKSRLTISKDTSKNQVSLKLSSLTAADTAVYYCAKHYYYGGSYAMDYWGQGTTVTVSS VL: DIQMTQSPSSLSASVGDRVTITCRASQDISKYLNWYQQKPGKAPKLLIYHTSRLHSGVPSRFSGSGSGTDYTFTISSLQPEDIATYYCQQGNTLPYTFGGGTKLEIK	14.8 nM	0.0018 s⁻¹			
humanized CD19 antibody VH1 + VL1 (antibody, V domains shown, also called Antibody No. 1) VH: QVQLQESGPGLVKPSQTLSLTCTVSGVSLPDYGVSWIRQPPGKGLEWIGVIWGSETTYYNSALKSRVTISVDTSKNQFSLKLSSVTAADTAVYYCARHYYYGGSYAMDYWGQGTTVTVSS VL: DIQMTQSPSSLSASVGDRVTITCRASQDISKYLNWYQQKPGKAPKLLIYHTSRLHSGVPSRFSGSGSGTDFTFTISSLQPEDIATYYCQQGNTLPYTFGGGTKLEIK	57.6 nM	0.00808 s⁻¹			
humanized CD19 antibody VH5 + VL1 (antibody, V domains shown, also called Antibody No. 13) VH: QVQLQESGPGLVKPSQTLSVTCTVSGVSLPDYGVSWIRQPPGKGLEWLGVIWGSETTYYNSALKSRLTISKDTSKNQVSLKLSSLTAADTAVYYCAKHYYYGGSYAMDYWGQGTTVTVSS VL: DIQMTQSPSSLSASVGDRVTITCRASQDISKYLNWYQQKPGKAPKLLIYHTSRLHSGVPSRFSGSGSGTDFTFTISSLQPEDIATYYCQQGNTLPYTFGGGTKLEIK	99.7 nM	0.000637 s⁻¹			
humanized CD19 antibody VH6 + VL4 (antibody, V domains shown, also called Antibody No. 16) VH: QVQLQESGPGLVKPSQTLSVTCTVSGVSLPDYGVSWIRQPPGKGLEWLGVIWGSETTYYNAALKSRLTISKDTSKNQVSLKLSSLTAADTAVYYCAKHYYYGGSYAMDYWGQGTTVTVSS VL: DIQMTQSPSSLSASVGDRVTITCRASQDISKYLNWYQQKPGKAPKLLIYHTSRLHSGVPSRFSGSGSGTDYTLTISSLQPEDIATYYCQQANTLPYTFGGGTKLEIK	21000 nM	0.00493 s⁻¹			
humanized CD19 antibody VH2 + VL3 (antibody, V domains shown, also called Antibody No. 6) VH: QVQLQESGPGLVKPSQTLSLTCTVSGVSLPDYGVSWIRQPPGKGLEWIGVIWGSETTYYNSALKSRVTISKDTSKNQVSLKLSSVTAADTAVYYCAKHYYYGGSYAMDYWGQGTTVTVSS VL: DIQMTQSPSSLSASVGDRVTITCRASQDISKYLNWYQQKPGKAPKLLIYHTSRLHSGVPSRFSGSGSGTDYTLTISSLQPEDIATYYCQQGNTLPYTFGGGTKLEIK	44.7 nM	0.000395 s⁻¹			
humanized CD19 antibody VH2 + VL2 (antibody, V domains shown, also called Antibody No. 5) VH: QVQLQESGPGLVKPSQTLSLTCTVSGVSLPDYGVSWIRQPPGKGLEWIGVIWGSETTYYNSALKSRVTISKDTSKNQVSLKLSSVTAADTAVYYCAKHYYYGGSYAMDYWGQGTTVTVSS VL: DIQMTQSPSSLSASVGDRVTITCRASQDISKYLNWYQQKPGKAPKLLIYHTSRLHSGVPSRFSGSGSGTDYTFTISSLQPEDIATYYCQQGNTLPYTFGGGTKLEIK	66.8 nM	0.000526 s⁻¹			
humanized CD19 antibody VH3 + VL3 (antibody, V domains shown, also called Antibody No. 9) VH: QVQLQESGPGLVKPSQTLSLTCTVSGVSLPDYGVSWIRQPPGKGLEWIGVIWGSETTYYNSALKSRLTISKDTSKNQVSLKLSSVTAADTAVYYCAKHYYYGGSYAMDYWGQGTTVTVSS VL: DIQMTQSPSSLSASVGDRVTITCRASQDISKYLNWYQQKPGKAPKLLIYHTSRLHSGVPSRFSGSGSGTDYTLTISSLQPEDIATYYCQQGNTLPYTFGGGTKLEIK	15.8 nM	0.00159 s⁻¹			
humanized CD19 antibody VH5 + VL3 (antibody, V domains shown, also called Antibody No. 15) VH: QVQLQESGPGLVKPSQTLSVTCTVSGVSLPDYGVSWIRQPPGKGLEWLGVIWGSETTYYNSALKSRLTISKDTSKNQVSLKLSSLTAADTAVYYCAKHYYYGGSYAMDYWGQGTTVTVSS VL: DIQMTQSPSSLSASVGDRVTITCRASQDISKYLNWYQQKPGKAPKLLIYHTSRLHSGVPSRFSGSGSGTDYTLTISSLQPEDIATYYCQQGNTLPYTFGGGTKLEIK	14.2 nM	0.00143 s⁻¹			
humanized CD19 antibody VH2 + VL7 (antibody, V domains shown) VH: QVQLQESGPGLVKPSQTLSLTCTVSGVSLPDYGVSWIRQPPGKGLEWIGVIWGSETTYYNSALKSRVTISKDTSKNQVSLKLSSVTAADTAVYYCAKHYYYGGSYAMDYWGQGTTVTVSS VL: DIQMTQSPSSLSASVGDRVTISCRASQDISKYLNWYQQKPDGTVKLLIYHTSRLHSGVPSRFSGSGSGTDFTFTISSLQPEDIATYFCQQGNTLPYTFGGGTKLEIK			6.39 nM	0.00116 s⁻¹	181000 M⁻¹ s⁻¹
humanized CD19 antibody VH4 + VL6 (antibody, V domains shown) VH: QVQLQESGPGLVKPSQTLSLTCTVSGVSLPDYGVSWIRQPPGKGLEWLGVIWGSETTYYNSALKSRLTISKDTSKNQVSLKLSSVTAADTAVYYCAKHYYYGGSYAMDYWGQGTTVTVSS VL: DIQMTQSPSSLSASVGDRVTITCRASQDISKYLNWYQQKPGGAVKLLIYHTSRLHSGVPSRFSGSGSGTDYTFTISSLQPEDIATYFCQQGNTLPYTFGGGTKLEIK			9.31 nM	0.00121 s⁻¹	129000 M⁻¹ s⁻¹
humanized CD19 antibody VH1 + VL2 (antibody, V domains shown, also called Antibody No. 2) VH: QVQLQESGPGLVKPSQTLSLTCTVSGVSLPDYGVSWIRQPPGKGLEWIGVIWGSETTYYNSALKSRVTISVDTSKNQFSLKLSSVTAADTAVYYCARHYYYGGSYAMDYWGQGTTVTVSS VL: DIQMTQSPSSLSASVGDRVTITCRASQDISKYLNWYQQKPGKAPKLLIYHTSRLHSGVPSRFSGSGSGTDYTFTISSLQPEDIATYYCQQGNTLPYTFGGGTKLEIK	7.95 nM	0.00738 s⁻¹			
humanized CD19 antibody VH4 + VL1 (antibody, V domains shown, also called Antibody No. 10) VH: QVQLQESGPGLVKPSQTLSLTCTVSGVSLPDYGVSWIRQPPGKGLEWLGVIWGSETTYYNSALKSRLTISKDTSKNQVSLKLSSVTAADTAVYYCAKHYYYGGSYAMDYWGQGTTVTVSS VL: DIQMTQSPSSLSASVGDRVTITCRASQDISKYLNWYQQKPGKAPKLLIYHTSRLHSGVPSRFSGSGSGTDFTFTISSLQPEDIATYYCQQGNTLPYTFGGGTKLEIK	81 nM	0.000584 s⁻¹			
humanized CD19 antibody VH4 + VL3 (antibody, V domains shown, also called Antibody No. 12) VH: QVQLQESGPGLVKPSQTLSLTCTVSGVSLPDYGVSWIRQPPGKGLEWLGVIWGSETTYYNSALKSRLTISKDTSKNQVSLKLSSVTAADTAVYYCAKHYYYGGSYAMDYWGQGTTVTVSS VL: DIQMTQSPSSLSASVGDRVTITCRASQDISKYLNWYQQKPGKAPKLLIYHTSRLHSGVPSRFSGSGSGTDYTLTISSLQPEDIATYYCQQGNTLPYTFGGGTKLEIK	56.1 nM	0.000437 s⁻¹			
humanized CD19 antibody VH2 + VL1 (antibody, V domains shown, also called Antibody No. 4) VH: QVQLQESGPGLVKPSQTLSLTCTVSGVSLPDYGVSWIRQPPGKGLEWIGVIWGSETTYYNSALKSRVTISKDTSKNQVSLKLSSVTAADTAVYYCAKHYYYGGSYAMDYWGQGTTVTVSS VL: DIQMTQSPSSLSASVGDRVTITCRASQDISKYLNWYQQKPGKAPKLLIYHTSRLHSGVPSRFSGSGSGTDFTFTISSLQPEDIATYYCQQGNTLPYTFGGGTKLEIK	69.8 nM	0.000568 s⁻¹			
humanized CD19 antibody VH4 + VL2 (antibody, V domains shown, also called Antibody No. 11) VH: QVQLQESGPGLVKPSQTLSLTCTVSGVSLPDYGVSWIRQPPGKGLEWLGVIWGSETTYYNSALKSRLTISKDTSKNQVSLKLSSVTAADTAVYYCAKHYYYGGSYAMDYWGQGTTVTVSS VL: DIQMTQSPSSLSASVGDRVTITCRASQDISKYLNWYQQKPGKAPKLLIYHTSRLHSGVPSRFSGSGSGTDYTFTISSLQPEDIATYYCQQGNTLPYTFGGGTKLEIK	89.2 nM	0.000605 s⁻¹			
